# From the nanobody polyreactivity screen of Harvey et al. (2022)
# Assay: yeast display, Sf9 membrane polyspecificity reagent, FACS + sequencing; frameworks hold sequencing errors
# Method in brief: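 Using colony PCR, genes from sorted yeast display clones were amplified, then sequenced on MiSeq at 2 × 250 and filtered by CDR length. The clones had been stained with 10% biotinylated, detergent-solubilized Sf9 membrane reagent for 1 hour at 4 °C and sorted by FACS into low and high (top ~1%) gates on anti-HA and streptavidin fluorescence. Polyreactivity labels come from the gate of origin.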
row,Sequence,polyreactivity (PSR sort gate)
1,QVQLVESGGGLVQAGGSLRLSCAASGRIFPPYAMGWYRQAPGKERELVAAISSSTTSTYYADSVKGRFTISRDNAKNTVYLQMNSLKPEDTADYYCAATGKGSYGYWGQGTQVTVSS,low polyreactivity
2,QVQLVESGGGLVQAGGSLRLSCAASGRIFPQNAMGWYRQAPGKERELVAAITSDGAITYYADSVKGRFTISRDNAKNTVYLQMNSLKPEDTAVYYCATQGRYYDYDYWGQGTQVTVSS,low polyreactivity
3,QVQLVESGGGLVQAGGSLRLSCAASGRIFPQYAMGWYRQAPGKERELVAGITSVGSTYYADSVKGRFTISRDNAKTTVYLQMNSLKPEDTAVFYCAAVPSRYVRANRRTYRYYYWGQGTQVTVSS,high polyreactivity
4,QVQLVESGGGLVQAGGSLRLSCAASGRIFPRNAMGWYRQAPGKERELVAAISQSGTSTYYADSVKGRFTISRDNAKNTVYLQMNSLKPEDTAVYYCAAVSSSGYYWGQGTQVTVSS,low polyreactivity
5,QVQLVESGGGLVQAGGSLRLSCAASGRIFPRNTMGWYRQAPGKQRELVAAISTRGGSTYYADSVKGRFTISRDNAKNTVYLQMNSLKPEDTAVYYCAAGRRFPAIYSTGNYWGQGTQVTVSS,high polyreactivity
6,QVQLVESGGGLVQAGGSLRLSCAASGRIFPRYAMGWYRQAPGKERELVAAITSSGTSTYYADSVKGRFTISRDNAKNTVYLQMNSLKPEDTAVYYCNAVKYARWGYDYWGQGTQVTVSS,high polyreactivity
7,QVQLVESGGGLVQAGGSLRLSCAASGRIFPRYGMGWYRQAPGKERELVADITSSGSTYADSVKGRFTISRDNAKNTVYLQMNSLKPEDTAVYYCNALYRRLSYSWRYRQLYDYWGQGTQVTVSS,high polyreactivity
8,QVQLVESGGGLVQAGGSLRLSCAASGRIFPRYVMGWYRQAPGKERELVAAITYRGGSTSYADSVKGRFTISRDNAKNTVYLQMNSLKPEDTAVYYCNAKSLYYNYAYDYWGQGTQVTVSS,high polyreactivity
9,QVQLVESGGGLVQAGGSLRLSCAASGRIFPTNAMGWYRQAPGKERELVASIDSGGSTKYADSVKGRFTISRDNAKNTVDLQMNSLKPEDTTVYYRALQVLNYDYWGQGTQVTVSS,low polyreactivity
10,QVQLVESGGGLVQAGGSLRLSCAASGRIFPTNAMGWYTQAHGKEREFVSAITWRGGSTYYADSVKGRFTISRDNAKNTVYLQMNSLKPEDTAVYYCAATGHIVFFRADDYGYWGQGTQVTVSS,low polyreactivity
11,QVQLVESGGGLVQAGGSLRLSCAASGRIFPTYTMGWYRQAPGKERELVAAISGRGGNTYYADSVKGRFTISRDNAKNTVYLQMNSLKPEDTAVYYCAARYPVRNGYWGQGTQVTVSS,high polyreactivity
12,QVQLVESGGGLVQAGGSLRLSCAASGRIFPVYAMGWYRQAPGKEREFVAAIRGTGTSTYYADSVKGRFTISRDNAKNTVYLQMNSLKPEDTAVYYCAASAGYAYNYWGQGTQVTVSS,low polyreactivity
13,QVQLVESGGGLVQAGGSLRLSCAASGRIFPVYAMGWYRQAPGKERELVAAIDYSDGSTYYADSVKGRFTISRDNAKNTVYLQMNSLKPEDTAVYYCAADYDAIYLWWGYDYWGQGTQVTVSS,low polyreactivity
14,QVQLVESGGGLVQAGGSLRLSCAASGRIFPVYAMGWYRQAPGKERELVAAISKRDGSTSYADSVKGRFTISRDNAKNTVYLEMNSLKPEDTAVYYCAATYLLERPTSIHPRYDYWGQGTQVTVSS,low polyreactivity
15,QVQLVESGGGLVQAGGSLRLSCAASGRIFPVYTMGWYRQAPGKERELVAAISGNGASTYYADSVKGRFTISRDNAKNTVYLQMNSLKPEDTAVYYCAAYFYYWGSTFVRYEYWGQGTQVTVSS,high polyreactivity
16,QVQLVESGGGLVQAGGSLRLSCAASGRIFPWYTMGWYRQAPGKERELVAAITSGGNTDYADSVKGRFTISRDNAKNSVYLQMNSLKPEETAVYYCAAGGYPGTTYYGYDYWGQGTQVTVSS,low polyreactivity
17,QVQLVESGGGLVQAGGSLRLSCAASGRIFPYMGWYRQAPGKERELVAAISSRGGNTYYADSVKGRFTISRDNAKNTVYLQMNSLKPEDTAVYYCNKVKYTWYDWGQGTQVTVSS,high polyreactivity
